This is an account of results in paper PMC9094124.

What is called stoichiometry N is a count of units in the complex or per binding partner.

The target in assay [1] is c-JO4 (cGMP-compliant JO4 junction opener protein) (human adenovirus serotype 3). The assay is described as follows: SEC + other: negative-stain electron microscopy; SEC on Superdex 200 Increase 10/300 in TBS, 1 mL/min; EM with 1% sodium silicotungstate pH 7.0, protein at 0.1 mg/ml.
The target is the same in assay [2]. The assay is described as follows: SDS-PAGE, not boiled and not reduced; 4-15% gradient gel, running buffer with 0.1% SDS, 1 ug protein, sample not boiled and not reduced.

For “c-JO4 (cGMP-compliant JO4 junction opener protein) (domain or fragment)”, the stoichiometry N in assay [1] came out at 6; in assay [2] it was 3.
